# Numbered stars: 1 amine (or outer) side, 2 acyl side, 3 side chain; on linkers, the order of the positions; unused ones are H or OH. * marks the point of attachment. C20 diacid = O=C(O)CCCCCCCCCCCCCCCCCCC(=O)*; C18 diacid = O=C(O)CCCCCCCCCCCCCCCCC(=O)*; γGlu = O=C(O)[C@H](CCC(=O)[*:2])N[*:1]; Palmitoyl = CCCCCCCCCCCCCCCC(=O)*
# T1: human amylin 3(a) receptor (human calcitonin receptor co-expressed with RAMP-3) (human, UniProt P30988 25-474; O60896 24-148, limits assumed)
# T1 sequence (looked up) 1: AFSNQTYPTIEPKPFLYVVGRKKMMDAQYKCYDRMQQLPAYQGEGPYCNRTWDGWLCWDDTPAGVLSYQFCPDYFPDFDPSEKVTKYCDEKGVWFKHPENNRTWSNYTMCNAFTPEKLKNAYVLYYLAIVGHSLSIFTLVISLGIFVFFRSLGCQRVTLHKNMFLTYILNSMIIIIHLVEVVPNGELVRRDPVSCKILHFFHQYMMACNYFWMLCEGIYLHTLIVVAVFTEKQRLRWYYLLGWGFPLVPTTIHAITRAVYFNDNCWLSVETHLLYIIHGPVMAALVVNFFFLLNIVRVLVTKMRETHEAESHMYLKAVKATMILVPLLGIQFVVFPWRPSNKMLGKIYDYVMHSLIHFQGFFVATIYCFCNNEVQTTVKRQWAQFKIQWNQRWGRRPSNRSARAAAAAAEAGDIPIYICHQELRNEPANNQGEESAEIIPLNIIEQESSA
# T1 sequence (looked up) 2: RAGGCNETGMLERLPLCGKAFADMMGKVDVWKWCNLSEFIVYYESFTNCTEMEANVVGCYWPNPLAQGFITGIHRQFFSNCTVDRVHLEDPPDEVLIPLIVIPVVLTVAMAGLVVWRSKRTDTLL
# T2: human calcitonin receptor (human, UniProt P30988 25-474)
# T2 sequence (looked up): T1 sequence (looked up) 1
# B1: [N-terminal(C18 diacid-gGlu), des1, 30S, 31G, 32P]mimylin (peptide)
# peptide: {C18 diacid-γGlu}-ASELSTAALGRLSAELHELATLPRTETGSGPP-NH2
# SMILES: CC(C)C[C@H](NC(=O)[C@H](C)NC(=O)[C@H](C)NC(=O)[C@@H](NC(=O)[C@H](CO)NC(=O)[C@H](CC(C)C)NC(=O)[C@H](CCC(=O)O)NC(=O)[C@H](CO)NC(=O)[C@H](C)NC(=O)CC[C@H](NC(=O)CCCCCCCCCCCCCCCCC(=O)O)C(=O)O)[C@@H](C)O)C(=O)NCC(=O)N[C@@H](CCCNC(=N)N)C(=O)N[C@@H](CC(C)C)C(=O)N[C@@H](CO)C(=O)N[C@@H](C)C(=O)N[C@@H](CCC(=O)O)C(=O)N[C@@H](CC(C)C)C(=O)N[C@@H](Cc1c[nH]cn1)C(=O)N[C@@H](CCC(=O)O)C(=O)N[C@@H](CC(C)C)C(=O)N[C@@H](C)C(=O)N[C@H](C(=O)N[C@@H](CC(C)C)C(=O)N1CCC[C@H]1C(=O)N[C@@H](CCCNC(=N)N)C(=O)N[C@H](C(=O)N[C@@H](CCC(=O)O)C(=O)N[C@H](C(=O)NCC(=O)N[C@@H](CO)C(=O)NCC(=O)N1CCC[C@H]1C(=O)N1CCC[C@H]1C(N)=O)[C@@H](C)O)[C@@H](C)O)[C@@H](C)O
# B2: [N-terminal(C20 diacid-gGlu), des1, 23Y, 30S, 31G, 32A]mimylin (peptide)
# peptide: {C20 diacid-γGlu}-ASELSTAALGRLSAELHELATYPRTETGSGAP-NH2
# SMILES: CC(C)C[C@H](NC(=O)[C@H](C)NC(=O)[C@H](C)NC(=O)[C@@H](NC(=O)[C@H](CO)NC(=O)[C@H](CC(C)C)NC(=O)[C@H](CCC(=O)O)NC(=O)[C@H](CO)NC(=O)[C@H](C)NC(=O)CC[C@H](NC(=O)CCCCCCCCCCCCCCCCCCC(=O)O)C(=O)O)[C@@H](C)O)C(=O)NCC(=O)N[C@@H](CCCNC(=N)N)C(=O)N[C@@H](CC(C)C)C(=O)N[C@@H](CO)C(=O)N[C@@H](C)C(=O)N[C@@H](CCC(=O)O)C(=O)N[C@@H](CC(C)C)C(=O)N[C@@H](Cc1c[nH]cn1)C(=O)N[C@@H](CCC(=O)O)C(=O)N[C@@H](CC(C)C)C(=O)N[C@@H](C)C(=O)N[C@H](C(=O)N[C@@H](Cc1ccc(O)cc1)C(=O)N1CCC[C@H]1C(=O)N[C@@H](CCCNC(=N)N)C(=O)N[C@H](C(=O)N[C@@H](CCC(=O)O)C(=O)N[C@H](C(=O)NCC(=O)N[C@@H](CO)C(=O)NCC(=O)N[C@@H](C)C(=O)N1CCC[C@H]1C(N)=O)[C@@H](C)O)[C@@H](C)O)[C@@H](C)O
# B3: [N-terminal(C20 diacid-gGlu), des1, 30T, 31G, 32T]mimylin (peptide)
# peptide: {C20 diacid-γGlu}-ASELSTAALGRLSAELHELATLPRTETGTGTP-NH2
# SMILES: CC(C)C[C@H](NC(=O)[C@H](C)NC(=O)[C@H](C)NC(=O)[C@@H](NC(=O)[C@H](CO)NC(=O)[C@H](CC(C)C)NC(=O)[C@H](CCC(=O)O)NC(=O)[C@H](CO)NC(=O)[C@H](C)NC(=O)CC[C@H](NC(=O)CCCCCCCCCCCCCCCCCCC(=O)O)C(=O)O)[C@@H](C)O)C(=O)NCC(=O)N[C@@H](CCCNC(=N)N)C(=O)N[C@@H](CC(C)C)C(=O)N[C@@H](CO)C(=O)N[C@@H](C)C(=O)N[C@@H](CCC(=O)O)C(=O)N[C@@H](CC(C)C)C(=O)N[C@@H](Cc1c[nH]cn1)C(=O)N[C@@H](CCC(=O)O)C(=O)N[C@@H](CC(C)C)C(=O)N[C@@H](C)C(=O)N[C@H](C(=O)N[C@@H](CC(C)C)C(=O)N1CCC[C@H]1C(=O)N[C@@H](CCCNC(=N)N)C(=O)N[C@H](C(=O)N[C@@H](CCC(=O)O)C(=O)N[C@H](C(=O)NCC(=O)N[C@H](C(=O)NCC(=O)N[C@H](C(=O)N1CCC[C@H]1C(N)=O)[C@@H](C)O)[C@@H](C)O)[C@@H](C)O)[C@@H](C)O)[C@@H](C)O
# B4: [N-terminal(C18 diacid), 5I, 9I, 10I, 20I]mimylin (peptide)
# peptide: {C18 diacid}-EASEISTAIIGRLSAELHEIATLPRTETGPESP-NH2
# SMILES: CC[C@H](C)[C@H](NC(=O)[C@H](C)NC(=O)[C@@H](NC(=O)[C@H](CO)NC(=O)[C@@H](NC(=O)[C@H](CCC(=O)O)NC(=O)[C@H](CO)NC(=O)[C@H](C)NC(=O)[C@H](CCC(=O)O)NC(=O)CCCCCCCCCCCCCCCCC(=O)O)[C@@H](C)CC)[C@@H](C)O)C(=O)N[C@H](C(=O)NCC(=O)N[C@@H](CCCNC(=N)N)C(=O)N[C@@H](CC(C)C)C(=O)N[C@@H](CO)C(=O)N[C@@H](C)C(=O)N[C@@H](CCC(=O)O)C(=O)N[C@@H](CC(C)C)C(=O)N[C@@H](Cc1c[nH]cn1)C(=O)N[C@@H](CCC(=O)O)C(=O)N[C@H](C(=O)N[C@@H](C)C(=O)N[C@H](C(=O)N[C@@H](CC(C)C)C(=O)N1CCC[C@H]1C(=O)N[C@@H](CCCNC(=N)N)C(=O)N[C@H](C(=O)N[C@@H](CCC(=O)O)C(=O)N[C@H](C(=O)NCC(=O)N1CCC[C@H]1C(=O)N[C@@H](CCC(=O)O)C(=O)N[C@@H](CO)C(=O)N1CCC[C@H]1C(N)=O)[C@@H](C)O)[C@@H](C)O)[C@@H](C)O)[C@@H](C)CC)[C@@H](C)CC
# B5: [N-terminal(C18 diacid-gGlu), des1, 9V, 30S, 31G]mimylin (peptide)
# peptide: {C18 diacid-γGlu}-ASELSTAVLGRLSAELHELATLPRTETGSGSP-NH2
# SMILES: CC(C)C[C@H](NC(=O)[C@H](CCC(=O)O)NC(=O)[C@H](Cc1c[nH]cn1)NC(=O)[C@H](CC(C)C)NC(=O)[C@H](CCC(=O)O)NC(=O)[C@H](C)NC(=O)[C@H](CO)NC(=O)[C@H](CC(C)C)NC(=O)[C@H](CCCNC(=N)N)NC(=O)CNC(=O)[C@H](CC(C)C)NC(=O)[C@@H](NC(=O)[C@H](C)NC(=O)[C@@H](NC(=O)[C@H](CO)NC(=O)[C@H](CC(C)C)NC(=O)[C@H](CCC(=O)O)NC(=O)[C@H](CO)NC(=O)[C@H](C)NC(=O)CC[C@H](NC(=O)CCCCCCCCCCCCCCCCC(=O)O)C(=O)O)[C@@H](C)O)C(C)C)C(=O)N[C@@H](C)C(=O)N[C@H](C(=O)N[C@@H](CC(C)C)C(=O)N1CCC[C@H]1C(=O)N[C@@H](CCCNC(=N)N)C(=O)N[C@H](C(=O)N[C@@H](CCC(=O)O)C(=O)N[C@H](C(=O)NCC(=O)N[C@@H](CO)C(=O)NCC(=O)N[C@@H](CO)C(=O)N1CCC[C@H]1C(N)=O)[C@@H](C)O)[C@@H](C)O)[C@@H](C)O
# B6: [N-terminal(C18 diacid-gGlu), des1, 4Q, 30S, 31G]mimylin (peptide)
# peptide: {C18 diacid-γGlu}-ASQLSTAALGRLSAELHELATLPRTETGSGSP-NH2
# SMILES: CC(C)C[C@H](NC(=O)[C@H](C)NC(=O)[C@H](C)NC(=O)[C@@H](NC(=O)[C@H](CO)NC(=O)[C@H](CC(C)C)NC(=O)[C@H](CCC(N)=O)NC(=O)[C@H](CO)NC(=O)[C@H](C)NC(=O)CC[C@H](NC(=O)CCCCCCCCCCCCCCCCC(=O)O)C(=O)O)[C@@H](C)O)C(=O)NCC(=O)N[C@@H](CCCNC(=N)N)C(=O)N[C@@H](CC(C)C)C(=O)N[C@@H](CO)C(=O)N[C@@H](C)C(=O)N[C@@H](CCC(=O)O)C(=O)N[C@@H](CC(C)C)C(=O)N[C@@H](Cc1c[nH]cn1)C(=O)N[C@@H](CCC(=O)O)C(=O)N[C@@H](CC(C)C)C(=O)N[C@@H](C)C(=O)N[C@H](C(=O)N[C@@H](CC(C)C)C(=O)N1CCC[C@H]1C(=O)N[C@@H](CCCNC(=N)N)C(=O)N[C@H](C(=O)N[C@@H](CCC(=O)O)C(=O)N[C@H](C(=O)NCC(=O)N[C@@H](CO)C(=O)NCC(=O)N[C@@H](CO)C(=O)N1CCC[C@H]1C(N)=O)[C@@H](C)O)[C@@H](C)O)[C@@H](C)O
# B7: [N-terminal(C20 diacid-gGlu), des1, 23Y, 30S, 31G, 33Y]mimylin (peptide)
# peptide: {C20 diacid-γGlu}-ASELSTAALGRLSAELHELATYPRTETGSGSY-NH2
# SMILES: CC(C)C[C@H](NC(=O)[C@H](C)NC(=O)[C@H](C)NC(=O)[C@@H](NC(=O)[C@H](CO)NC(=O)[C@H](CC(C)C)NC(=O)[C@H](CCC(=O)O)NC(=O)[C@H](CO)NC(=O)[C@H](C)NC(=O)CC[C@H](NC(=O)CCCCCCCCCCCCCCCCCCC(=O)O)C(=O)O)[C@@H](C)O)C(=O)NCC(=O)N[C@@H](CCCNC(=N)N)C(=O)N[C@@H](CC(C)C)C(=O)N[C@@H](CO)C(=O)N[C@@H](C)C(=O)N[C@@H](CCC(=O)O)C(=O)N[C@@H](CC(C)C)C(=O)N[C@@H](Cc1c[nH]cn1)C(=O)N[C@@H](CCC(=O)O)C(=O)N[C@@H](CC(C)C)C(=O)N[C@@H](C)C(=O)N[C@H](C(=O)N[C@@H](Cc1ccc(O)cc1)C(=O)N1CCC[C@H]1C(=O)N[C@@H](CCCNC(=N)N)C(=O)N[C@H](C(=O)N[C@@H](CCC(=O)O)C(=O)N[C@H](C(=O)NCC(=O)N[C@@H](CO)C(=O)NCC(=O)N[C@@H](CO)C(=O)N[C@@H](Cc1ccc(O)cc1)C(N)=O)[C@@H](C)O)[C@@H](C)O)[C@@H](C)O
# Molecular target: T1, human amylin 3(a) receptor (human …)
# Assay: cell-based or functional assay
row,Binder,hAmylin-R funct. EC50 (pM)
1,Palmitoyl-EASELSTAALGRLSAELHELATLPRTETGPESP-NH2 [[N-terminal(C16)]mimylin],10
2,B1,80
3,B2,37
4,B3,50
5,B4,10
6,B5,10
7,B6,9
8,B7,32
9,"{C20 diacid-γGlu}-ASGLSTAALGRLSAELHELATYPRTETGSGSP-NH2 [[N-terminal(C20 diacid-gGlu), des1, 4G, 23Y, 30S, 31G]mimylin]",38

# Molecular target: T2, human calcitonin receptor
# Assay: cell-based or functional assay
row,Binder,hCTR funct. EC50 (pM)
1,Palmitoyl-EASELSTAALGRLSAELHELATLPRTETGPESP-NH2 [[N-terminal(C16)]mimylin],13
2,B1,19
3,B2,41
4,B3,45
5,B4,6
6,B5,14
7,B6,11
8,B7,29
9,"{C20 diacid-γGlu}-ASGLSTAALGRLSAELHELATYPRTETGSGSP-NH2 [[N-terminal(C20 diacid-gGlu), des1, 4G, 23Y, 30S, 31G]mimylin]",42

# — patent US20160272683A1 (Novo Nordisk, published 2016)
